Results taken from US20220089784A1 (University of California, published 2022).
Substitutions are numbered along the chain they refer to. Read-outs that look alike come from different tables or passages of the source.

T1: BoNT/B HC (C-terminal domain of the BoNT/B heavy chain, recombinant) (Clostridium botulinum, UniProt P10844 853-1291)
T1 sequence: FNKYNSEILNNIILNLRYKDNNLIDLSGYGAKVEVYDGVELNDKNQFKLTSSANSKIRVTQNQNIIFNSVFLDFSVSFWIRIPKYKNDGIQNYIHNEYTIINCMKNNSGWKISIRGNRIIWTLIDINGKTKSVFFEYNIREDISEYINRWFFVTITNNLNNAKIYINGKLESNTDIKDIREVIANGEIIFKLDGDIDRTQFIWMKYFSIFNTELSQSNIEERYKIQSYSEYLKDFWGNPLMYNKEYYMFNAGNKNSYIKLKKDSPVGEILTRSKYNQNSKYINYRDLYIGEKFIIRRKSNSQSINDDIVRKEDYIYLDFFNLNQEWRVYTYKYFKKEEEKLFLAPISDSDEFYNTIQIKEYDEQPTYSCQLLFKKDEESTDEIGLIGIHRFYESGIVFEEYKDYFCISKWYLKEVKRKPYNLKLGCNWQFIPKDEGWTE

T2: BoNT/B1 (Clostridium botulinum, UniProt P10844 2-1291)
T2 sequence: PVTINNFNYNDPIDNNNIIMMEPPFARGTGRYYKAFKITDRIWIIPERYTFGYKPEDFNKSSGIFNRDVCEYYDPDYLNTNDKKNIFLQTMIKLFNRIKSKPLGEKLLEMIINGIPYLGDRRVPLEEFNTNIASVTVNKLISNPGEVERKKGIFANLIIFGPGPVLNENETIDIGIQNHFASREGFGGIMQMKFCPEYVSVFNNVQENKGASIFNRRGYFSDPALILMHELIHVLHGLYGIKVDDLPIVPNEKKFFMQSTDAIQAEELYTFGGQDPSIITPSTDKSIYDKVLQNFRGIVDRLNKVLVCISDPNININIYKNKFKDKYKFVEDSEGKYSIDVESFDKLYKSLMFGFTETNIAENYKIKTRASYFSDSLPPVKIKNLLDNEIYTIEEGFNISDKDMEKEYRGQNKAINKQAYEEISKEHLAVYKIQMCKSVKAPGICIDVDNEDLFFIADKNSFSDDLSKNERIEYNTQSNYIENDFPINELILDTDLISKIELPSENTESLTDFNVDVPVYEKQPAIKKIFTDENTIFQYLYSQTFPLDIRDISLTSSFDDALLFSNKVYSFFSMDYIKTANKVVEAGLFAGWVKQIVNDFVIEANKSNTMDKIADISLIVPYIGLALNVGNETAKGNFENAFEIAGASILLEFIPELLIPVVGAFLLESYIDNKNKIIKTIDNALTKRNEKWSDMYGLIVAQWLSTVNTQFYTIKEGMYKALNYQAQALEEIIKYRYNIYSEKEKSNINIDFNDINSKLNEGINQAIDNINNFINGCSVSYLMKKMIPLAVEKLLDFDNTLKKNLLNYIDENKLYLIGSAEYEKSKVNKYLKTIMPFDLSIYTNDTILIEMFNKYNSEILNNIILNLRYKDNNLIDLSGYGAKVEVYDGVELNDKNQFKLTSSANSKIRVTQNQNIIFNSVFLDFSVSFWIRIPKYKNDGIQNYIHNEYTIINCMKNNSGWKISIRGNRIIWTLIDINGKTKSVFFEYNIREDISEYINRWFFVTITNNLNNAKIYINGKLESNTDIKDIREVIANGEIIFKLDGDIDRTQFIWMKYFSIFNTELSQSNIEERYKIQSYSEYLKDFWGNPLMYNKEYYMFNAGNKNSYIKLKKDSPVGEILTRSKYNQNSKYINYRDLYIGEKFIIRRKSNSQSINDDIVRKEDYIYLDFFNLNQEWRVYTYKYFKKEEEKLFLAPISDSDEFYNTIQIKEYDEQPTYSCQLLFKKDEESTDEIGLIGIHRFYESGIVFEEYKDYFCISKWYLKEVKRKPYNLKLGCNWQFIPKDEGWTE

B1: 26D9 scFv (scFv)
scFv: DVQLQESGAELVKPGASVKLSCKASGFTFTDYWMHWVKQRPGQGLEWIGMIHPYNGDNNYHEKFKSKATLTVDKSSSTAYMQLSSLTTEDSAVYYCVRNDYDPYYYALDYWGQGTSLTVSAVDLKSGGSTSGSGKPGSGEGSSGSARQIVLTQSPAIMSASPGEKVTMSCRASSSVSYVYWYQQKPGSSPKPWIYRTSNLASGVPVRFSGSGSGTSYSLTISRVEAEDAATYYCQQWSSYPPTFGGGTKLEIK
notes: mouse
B2: 26E6 scFv (scFv)
scFv: EVQLQQSGPELVKPGASVKISCKASGYTFADYYINWVKQSHGKSLEWIGDFNPNNGDHSYNQKFKDKATLTVDESSNTAYMELRSLTSEDSAVYYCTREFYYYFDVWGTGTTVTVSSVDLKSGGSTSGSGKPGSGEGSSGSARDIVMSQSPLSLPVSLGDQAFISCRFSQSIVHSNGNTYLEWYLQKPGQSPKLLIYKVSNRFSGVPDRFSGSGSGTDFTLKISRVEAEDLGVYYCFQGSHVPYTFGGGTKLEIK
notes: mouse
B3: 6A3M IgG (antibody, V domains shown)
VH: EVQLQQSGAELVKPGASVKLSCKASGYTFTSYWMHWIKQRPGQGLEWIGVIDPSDSYTNYNQKFKGKATLTVDTSSSTAYMQLSSLTSEDSAVYYCATGGNGFFDYWGQGTTLTVSS
VL: DIVLTQSPASLAVSLGQRATISCRASESVDYDGDSYMNWYQQKPGQPPKLLIYAASNLESGIPARFSGSGSGTDFTLNIHPVEEEDAATYYCLQSNEAPWTFGGGTKLELK
notes: IgG converted from scFv
B4: 6A4M IgG (antibody, V domains shown)
VH: EVQLQQSGAELVRPGTSVKLSCKASGYTFTSYWMHWVKQRPGQGLEWIGVIDPSDSYTNYNQKFKGKATLTVDTSSSTAYMQLSSLASEDSAVYYCARYPGNRAMDYWGQGTSVTVSS
VL: B3 VL with L110I
notes: IgG converted from scFv
B5: 26C2 scFv (scFv)
scFv: QVQLKQSGPELVKPGASVKLSCKASGYTFTSYDINWVKQRPGQGLEWIGWIYPRDDITKYNEKFKDKATLTVDTSSSTAYMELHSLTSEDSAVYFCARGDYYGSLDYWGQGTTLTVSSVDLKSGGSTSGSGKPGSGEGSSGSARQIVLTQSPAIMSASPGEKVTMTCSASSSVSYMHWYQQKSSTSPKLWIYDTSKLASGVPGRFSGSGSGNSYSLTISSMEAEDVATYYCFQGSGYPLTFGAGTKLEIK
notes: mouse
B6: 6A8M IgG (antibody, V domains shown)
VH: QVQLKESGPGLVKPSQTVSLTCTVTGYSITNGNHWWNWIRQVSGSKLEWIGYISSSGYTDINPSLKSRISITRDTSKNQLFLQLNSVTTEDIATYYCARDDGYYEALDYWGQGTSVTVSS
VL: DIVMSQSPAIMSASPGEKVTLTCSASSSVSSNYLYWYQQKPGSSPKLWIYSTSNLASGVPARFSGSGSGTSYSLTISRVEAEDAATYYCQQWSSNPPTFGGGTKLEIK
notes: IgG converted from scFv
B7: 26B2 scFv (scFv)
scFv: DVQLQESGPELVKPGASVKISCKASGYTFADYYINWVKQSHGKSLEWIGDFNPNNGDHSYNQKFKDKATLTVDESSNTAYMELRSLTSEDSAVYYCTREFYYYFDVWGTGTSVTVSSVDLKSGGSTSGSGKPGSGEGSSGSARDIEMTQTPAIMSASPGEKVTMTCSASSSVSSRYLHWYQQKSGASPKLWIYGTSNLASGVPARFSGSGSGTSYSLTISNVEAEDAATYYCQQYHSDPLTFGAGTKLEIK
notes: mouse
B8: B4 (antibody) (antibody, V domains shown)
VH: QVQLVESGGGVVRPGGSLRLSCAASGFTFDDYGMSWVRQAPGKGLEWVSAINWNGGNTGYADSVKGRFTISRDNAKNSLYLQMNSLRVEDTALYHCAREGDYGGLYFDYWGQGTLVTVSS
VL: not shown
B9: 26G5 scFv (scFv)
scFv: EVQLQESGPGLAKPSQTLSLTCSVTGYSITSDYWNWIRKFPGNKLEYMGYISYSGSTYYNPSLKSRISITRDTSKNQYYLQLNSVTTEDTATYYCARSFYDGYLYFDYWGQGTTVTVSSVDLKSGGSTSGSGKPGSGEGSSGSAREIVLTQSPAILSASPGEKVTMTCSASSSVSYMYWYQQKPGSSPRLLIYDTSNLASGVPARFSGSGSGTSYSLTISRVEAEDAATYYCQQWSSYPPTFGDGTRLEIK
notes: mouse

What was measured:
[1] = biological target: T1, BoNT/B HC (C-terminal domain of the …); test: yeast scFv FACS
BoNT/B1 = biological target: T2, BoNT/B1; test: yeast scFv FACS
[2] = biological target: BoNT/A light chain (recombinant) (Clostridium botulinum, UniProt P0DPI0 1-448); test: KinExA, IgG
[3] = biological target: T3, BoNT/A1 holotoxin (Hall hyper) (Clostridium botulinum, UniProt P0DPI0 2-1296); test: KinExA, IgG
[4] = biological target: T3, BoNT/A1 holotoxin (Hall hyper)

Binder | Kd [1] | Kd (BoNT/B1) | Kd [2] | other results
B1 | 0.089 nM | 0.582 nM |  | 
B2 | 0.889 nM | 4.85 nM |  | 
B3 |  |  | 10 nM | 
B4 |  |  | 21 nM | 
B5 | 7.76 nM | 23.7 nM |  | 
B6 |  |  | 4.99 nM | Kd [3]: 0.852 nM
B7 | 0.086 nM | 0.276 nM |  | 
B8 |  |  |  | Kd [4]: 0.0931 nM
B9 | 1.79 nM | 3.91 nM |  | 
